Measurements published in patent US20160257710A1, “SELECTIVE INHIBITORS OF PROTEINASE 3” (INSERM (INSTITUT NATIONAL DE LA SANTÉ ET LA RECHERCHE …, priority 2013, published 2016).
Positions count from the first letter of the chain named. Where no end group is shown, it is not given here. [ ]: non-standard residue; d: D form. AlaP = not defined here

Columns and labels:
PR3 = molecular target: T1, PR3 (Homo sapiens, UniProt P24158); test: Inhibition of protease activity in crude lung secretions of patients (IPF, cystic fibrosis); format: biochemical; conditions: 30 min incubation, IPF and CF samples
T1 construct: in a lysate of purified human neutrophils; endogenous in cells; host or cells: purified human neutrophils (lysate)
T1 sequence (P24158 28-248): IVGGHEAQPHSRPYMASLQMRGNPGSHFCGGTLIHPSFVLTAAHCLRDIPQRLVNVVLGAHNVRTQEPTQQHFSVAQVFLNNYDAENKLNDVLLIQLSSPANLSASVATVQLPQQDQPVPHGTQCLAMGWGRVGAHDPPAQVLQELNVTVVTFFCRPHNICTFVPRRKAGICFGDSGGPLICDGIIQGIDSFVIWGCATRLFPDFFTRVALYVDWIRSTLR
Procedure: Crude lung secretions of patients with chronic inflammatory disorders associating significant neutrophil recruitment (IPF, Cystic fibrosis) were used as biological material to assay the efficacy of phosphonate inhibitors. We first measured the rate of cleavage of the PR3 substrate in >3 IPF and >3 CF crude samples before and after incubation with compounds 2 and 4 (×μM final). All crude samples cleaved the PR3 substrate in the absence of inhibitor and the cleavage always occurred at the expected bond, i.e. the cleavage bond of PR3, as checked by HPLC. The PR3 concentration was in the 0.1-1 μM range in lung secretions, based on the rate of substrate hydrolysis. […] Further, the rate of PR3 inactivation in a crude biological sample […] that of purified PR3, which means that there is no adverse effect impairing the PR3 inhibition in lung secretions of patients with inflammatory disorders.

PR3I217R = molecular target: T2, PR3I217R (Homo sapiens, UniProt P24158, I221R); test: Residual activity of recombinant PR3 mutant in presence of increasing amounts of compound; format: biochemical
T2 construct: made in house; host or cells: Drosophila S2 cells
T2 sequence (P24158 28-248 I221R limits assumed): T1 sequence (P24158 28-248) with I194R
Procedure: (§1) Recombinant PR3K99L and […] were produced in Drosophila S2 cells using the calcium phosphate method, and stable cell lines were selected using puromycin. Proteins were purified by affinity chromatography on Chelating Sepharose and analyzed by SDS-PAGE. The total protein concentration was determined with a BCA Protein Assay
(§2) Phosphonate inhibitors and their biotinylated and fluorescent derivatives were synthesized, purified and controlled by mass spectrometry as reported. Their purity was checked by HPLC (data not shown). Purified Ac-Asp-Tyr-Asp-Ala^P(O—C6H4-4-Cl)2 (compound 1) and Ac-Pro-Tyr-Asp-Ala^P(O—C6H4-4-Cl)2 (compound 2) were first assayed for their inhibitory properties by measuring the residual activity of the human neutrophil serine proteases PR3, HNE and CatG in the presence of increasing amounts of each compound. We used for this purpose the FRET substrates that we developed previously for each protease (18). An almost complete inhibition of PR3 (1 nM final) was obtained after a 30 min incubation time with 20 μM of compound 1 (FIG. 1) and 0.3 μM of compound 2 (FIG. 2). Recombinant PR3K99L, […], HNE and CatG were used in the same experimental conditions. […] This emphasizes the importance of the S2 and S4 subsites to discriminate between PR3 and HNE specificities. Significant inhibition of HNE was obtained using about 100 times more Ac-Pro-Tyr-Asp-Ala^P(O—C6H4-4-Cl)2 than required to inhibit PR3. […] We confirmed this observation kinetically by measuring the second order rate constants kobs/l by competition experiments between the PR3 substrate and each inhibitor (17). As expected the second order rate constant kobs/l for compound 2 was about 100 times greater than that for compound 1 (see Table 1).

PR3K99L = molecular target: T3, PR3K99L (Homo sapiens, UniProt P24158, K115L); test: as above; format: biochemical; conditions: Lys99 replaced by Leu in S2 subsite
T3 construct: made in house; host or cells: Drosophila S2 cells
T3 sequence (P24158 28-248 K115L limits assumed): T1 sequence (P24158 28-248) with K88L
Procedure: as §1, §2

Elastase = molecular target: T4, Elastase (Homo sapiens, UniProt P08246); test: Protease inhibition assay, second order rate constant kobs/[I] (method of Tian and Tsou); format: biochemical; conditions: n.s where no significant inhibition
T4 sequence (P08246 30-267): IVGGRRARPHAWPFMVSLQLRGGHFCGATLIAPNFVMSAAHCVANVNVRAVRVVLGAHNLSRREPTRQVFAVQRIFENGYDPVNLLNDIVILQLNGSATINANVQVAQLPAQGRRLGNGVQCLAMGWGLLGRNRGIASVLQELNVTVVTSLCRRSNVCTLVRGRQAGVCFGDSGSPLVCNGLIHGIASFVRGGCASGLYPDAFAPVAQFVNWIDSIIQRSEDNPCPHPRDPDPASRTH
Procedure: The inactivation of proteases by substrate analog inhibitors in the presence of the substrate by competition for the enzyme-binding site, was measured by the method of Tian and Tsou (17). In this system, product formation in the presence of an irreversible inhibitor approaches an asymptote, as described by
log([P∞]−[P])=log [P∞]−0.43A[Y]t
where [P∞] is the concentration of product formed at time approaching infinity, [P] is the concentration of product at time t, [Y] is the inhibitor concentration, and A is the apparent inhibition rate constant in the presence of the substrate. A is given by
where k+0 is the rate constant for association of the inhibitor with the enzyme, K^−1 is the inverted Michaelis constant, and [S] the substrate concentration. The apparent inhibition rate constant A is the slope of a plot of log([P∞]−[P]) against t, to give the second-order rate constant of inhibition k+0

[1] = Stability of inhibitors in neutrophil lysate (preincubation before adding substrates); format: in vitro ADME, human; conditions: one hour preincubation of neutrophil lysate-inhibitor mixture
Source text: We first studied the stability and the selectivity of compound 1, 2 and their biotinylated derivatives in a lysate of purified human neutrophils. […] Further, PR3 was selectively inactivated in the neutrophil lysate as shown by western blotting using biotinylated inhibitors.

CatG = molecular target: T5, CatG (Homo sapiens, UniProt P08311); test: Inhibition of protease activity in crude lung secretions of patients (IPF, cystic fibrosis); format: biochemical; conditions: 30 min incubation, IPF and CF samples
T5 sequence (P08311 21-244): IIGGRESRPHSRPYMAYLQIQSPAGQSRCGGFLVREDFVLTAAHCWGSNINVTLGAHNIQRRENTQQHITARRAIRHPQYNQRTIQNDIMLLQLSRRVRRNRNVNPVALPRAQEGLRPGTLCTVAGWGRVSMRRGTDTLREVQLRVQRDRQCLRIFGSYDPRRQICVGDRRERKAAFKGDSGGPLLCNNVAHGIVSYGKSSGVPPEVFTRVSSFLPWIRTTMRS

Ac-Pro-Tyr-Asp-Ala^P(O—C6H4-4-Cl)2 (Ac-PYD[AlaP]; not fully specified (C-terminus); printed as Ac-Pro-Tyr-Asp-Ala^P(O—C6H4-4-Cl)2; reading uncertain; also: C-terminal Ala as phosphonate analogue (Ala^P)) [Compound 2]
hydrolysis of PR3 substrate in crude lung secretions (PR3): total inhibition
inhibition of the Ile217 to Arg217 PR3 mutant compared with PR3K99L (PR3I217R): more efficient toward this mutant
sensitivity of PR3K99L to inhibition compared with wt PR3 (PR3K99L): far less sensitive to inhibition
Elastase kobs/[I] (Elastase): n.s
inhibition potential after preincubation in neutrophil lysate [1]: No loss of the inhibition potential
CatG activity in crude lung secretions (CatG): remained unchanged
